The labels stand for the following.
B5: oligopeptide … (aa 75-98) [SEQ ID NO: 106] (peptide)
peptide: EDPPGEEDLPGEEDLPGEEDLPEV

Where no end group is shown, it is not given here.

Test [1] addresses B5. The test can be described thus: phage display (Ph.D.-7): panning on immobilized peptide SEQ ID NO: 106, elution with M75, 5 cycles.
Test [2] deals with T1, GST-MN fusion protein (MN glutathione S-transferase), expressed in bacteria from pGEX-3X-MN (human, UniProt Q16790 38-459). The test can be described thus: phage display (Ph.D.-7): panning on wells coated with GST-MN, elution by acetazolamide, 3 rounds.
In test [3] the target is T2, monoclonal antibody M75 (MAb M75), secreted by hybridoma VU-M75, ATCC HB 11128.
T2 construct: Mouse IgG; used as ascites fluid in the ELISA and in the cell adhesion tests; also called MAb 75
Kind of test: competition ELISA (peptide against immobilized GST-MN for M75). (An ELISA detects its analyte on a solid surface through an enzyme-linked reagent.)

Test [4] concerns the target T1, GST-MN fusion protein (MN glutathione …). Kind of test: competition ELISA on immobilized GST-MN; competitor M75.
Test [5] shares this target. The test can be described thus: phage display panning on GST-MN, elution with acetazolamide.

B1: phage-displayed heptapeptide ITFNAQY (nonapeptide SEQ ID NO: 138 without the added terminal alanines) (peptide)
peptide: ITFNAQY
On to B1, for which the binding result in test [1] is “binds”.

B2: phage-displayed heptapeptide SASAPVS (nonapeptide SEQ ID NO: 139 without the added terminal alanines) (peptide)
peptide: SASAPVS
Consider B2, for which, in test [1], the binding result is reported as “binds”.

B3: phage-displayed heptapeptide GETRAPL (SEQ ID NO: 107) (peptide)
peptide: GETRAPL
B3: the binding result in test [2] is “binds”.

B4: phage-displayed heptapeptide GETREPL (SEQ ID NO: 108) (peptide)
peptide: GETREPL
As to B4, the binding result in test [2] is “binds”.

Usually IC50 stands for the point on the concentration scale where inhibition reaches its midpoint. The low end stands for greater potency in that assay, the high end for weaker potency in that assay. For B5, the IC50 in test [3] was 1 ng/mL.

B6: phage-displayed heptapeptide KKMKRRK (nonapeptide SEQ ID NO: 137 without the added terminal alanines) (peptide)
peptide: KKMKRRK
Regarding B6, the binding result in test [1] is given as “binds”.

B7: nonapeptide ASASAPVSA [SEQ ID NO: 139] (peptide)
peptide: ASASAPVSA-NH2
notes: Synthetic; phage-selected heptapeptide with alanine added on both sides
On to B7, for which the binding result in test [4] was “binds”.

B8: phage-displayed heptapeptide GQTRSPL (SEQ ID NO: 109) (peptide)
peptide: GQTRSPL
On to B8, for which, in test [5], the binding result is “binds”.

B9: nonapeptide AITFNAQYA [SEQ ID NO: 138] (peptide)
peptide: AITFNAQYA-NH2
notes: as for B7
On to B9, for which the binding result in test [4] was “binds”.

B10: nonapeptide AKKMKRRKA [SEQ ID NO: 137] (peptide)
peptide: AKKMKRRKA-NH2
notes: as for B7
Turning to B10, the binding result in test [4] is listed as “binds”.

(Values after patent US7910549 (INSTITUTE OF VIROLOGY OF THE SLOVAK ACADEMY OF SCIENCES, dated 2011).)
